Measured values published in paper PMC13534702, “Polo/PLK1 phosphorylation relieves Centrosomin/Cnn autoinhibition to promote centrosome scaffold assembly” (The EMBO Journal, 2026).

B2: MBP-Cnn_(490-608) WT (domain or fragment, Drosophila melanogaster, UniProt P54623-2 490-608, looked up)
chain: DQQNSAVIGQLRLELQQARTEVETADKWRLECVDVCSVLTNRLEELAGFLNSLLKHKDVLGVLAADRRNAMRKAVDRSLDLSKSLNMTLNITATSLADQSLAQLCNLSEILYTEGDASH
notes: I take the same protein to have been used there; source: E. coli BL21 (DE3), purified; not shown: MBP, N-terminal, kept

Experiments:
[1] = biological target: T1, Full-length SPD-5-GFP (C. elegans), P91349; test: mass photometry; full-length GFP fusions in solution; 20 mM HEPES, 150 mM KCl, pH 7.25; low nanomolar concentration (10 nM final by the procedure of the standards); details: remark: other sources report otherwise
T1 chain: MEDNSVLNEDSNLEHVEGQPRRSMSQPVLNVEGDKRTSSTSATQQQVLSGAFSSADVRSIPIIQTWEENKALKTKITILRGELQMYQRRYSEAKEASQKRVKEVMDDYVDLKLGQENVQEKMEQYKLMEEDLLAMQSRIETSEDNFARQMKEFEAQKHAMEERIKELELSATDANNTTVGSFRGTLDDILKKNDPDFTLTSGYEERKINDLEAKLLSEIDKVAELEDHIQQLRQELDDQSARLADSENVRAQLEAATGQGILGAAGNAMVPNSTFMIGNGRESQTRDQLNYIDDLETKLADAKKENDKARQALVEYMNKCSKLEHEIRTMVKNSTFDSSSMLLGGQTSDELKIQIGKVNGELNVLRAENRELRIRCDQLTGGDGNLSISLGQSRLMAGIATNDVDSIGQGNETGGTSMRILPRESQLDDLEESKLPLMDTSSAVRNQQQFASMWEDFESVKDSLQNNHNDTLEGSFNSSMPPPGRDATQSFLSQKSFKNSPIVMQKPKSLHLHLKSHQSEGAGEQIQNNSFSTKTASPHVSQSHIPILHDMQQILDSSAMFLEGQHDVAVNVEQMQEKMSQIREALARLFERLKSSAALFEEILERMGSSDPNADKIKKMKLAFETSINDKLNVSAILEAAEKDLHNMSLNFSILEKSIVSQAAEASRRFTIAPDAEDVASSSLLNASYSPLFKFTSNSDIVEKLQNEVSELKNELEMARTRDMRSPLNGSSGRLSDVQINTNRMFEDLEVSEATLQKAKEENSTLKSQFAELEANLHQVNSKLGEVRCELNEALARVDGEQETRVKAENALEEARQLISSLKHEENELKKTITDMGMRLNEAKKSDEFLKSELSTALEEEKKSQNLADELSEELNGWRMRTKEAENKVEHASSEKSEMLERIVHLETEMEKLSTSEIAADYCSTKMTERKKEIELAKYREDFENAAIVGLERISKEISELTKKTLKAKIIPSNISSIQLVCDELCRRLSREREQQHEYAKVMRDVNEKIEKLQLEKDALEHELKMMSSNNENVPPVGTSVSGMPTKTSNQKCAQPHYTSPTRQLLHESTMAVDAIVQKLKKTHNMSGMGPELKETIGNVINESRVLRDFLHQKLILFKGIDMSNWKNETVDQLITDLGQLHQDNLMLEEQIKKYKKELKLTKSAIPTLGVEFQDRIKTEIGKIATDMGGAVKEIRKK

[2] = biological target: the molecule itself; test: SEC; MBP-Cnn 490-608 variants run alone; absorbance at 280 nm; size judged from the elution volume
[3] = biological target: T2, Cnn_(490-608), tag cleaved (SEC-MALS) (Drosophila melanogaster, UniProt P54623-2 490-608); test: SEC-MALS; Cnn 490-608 mixed with CM2; Superdex 75 or Superdex 200 10/300 Increase; 20 mM Tris pH 7.5, 150 mM NaCl, 0.5 mM TCEP; 0.5 mL/min; fraction checked on an SDS gel; details: both partners purified
T2 construct: also called PReMΔH1ΔNTH2; source: E. coli BL21 (DE3), purified, tag cleaved for SEC-MALS; not shown: His6, N-terminal, cleaved; MBP, N-terminal, cleaved
T2 sequence (looked up): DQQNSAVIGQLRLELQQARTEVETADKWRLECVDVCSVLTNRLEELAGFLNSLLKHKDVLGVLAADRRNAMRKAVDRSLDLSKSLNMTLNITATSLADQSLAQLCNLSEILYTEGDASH

[4] = biological target: T3, MBP-Cnn_(490-608) 2E (S567E/S571E) (Drosophila melanogaster, UniProt P54623-2 490-608, S567E | S571E); test: SEC; PReM domain (Cnn 490-608) variants mixed with CM2; fractions checked on SDS gels; details: both partners purified
T3 construct: also called 2E mutant; source: E. coli BL21 (DE3), purified; not shown: MBP, N-terminal, kept
T3 sequence (looked up): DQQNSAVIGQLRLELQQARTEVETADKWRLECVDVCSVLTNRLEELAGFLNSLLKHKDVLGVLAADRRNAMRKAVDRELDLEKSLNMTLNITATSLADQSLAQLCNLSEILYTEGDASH

[5] = biological target: B2; test: as above; details: both partners purified
[6] = biological target: the molecule itself; test: mass photometry; full-length GFP fusions in solution; 20 mM HEPES, 150 mM KCl, pH 7.25; low nanomolar concentration (10 nM final by the procedure of the standards)

B1: Full-length SPD-5-GFP, P91349 1-1198 (natural protein)
chain: MEDNSVLNEDSNLEHVEGQPRRSMSQPVLNVEGDKRTSSTSATQQQVLSGAFSSADVRSIPIIQTWEENKALKTKITILRGELQMYQRRYSEAKEASQKRVKEVMDDYVDLKLGQENVQEKMEQYKLMEEDLLAMQSRIETSEDNFARQMKEFEAQKHAMEERIKELELSATDANNTTVGSFRGTLDDILKKNDPDFTLTSGYEERKINDLEAKLLSEIDKVAELEDHIQQLRQELDDQSARLADSENVRAQLEAATGQGILGAAGNAMVPNSTFMIGNGRESQTRDQLNYIDDLETKLADAKKENDKARQALVEYMNKCSKLEHEIRTMVKNSTFDSSSMLLGGQTSDELKIQIGKVNGELNVLRAENRELRIRCDQLTGGDGNLSISLGQSRLMAGIATNDVDSIGQGNETGGTSMRILPRESQLDDLEESKLPLMDTSSAVRNQQQFASMWEDFESVKDSLQNNHNDTLEGSFNSSMPPPGRDATQSFLSQKSFKNSPIVMQKPKSLHLHLKSHQSEGAGEQIQNNSFSTKTASPHVSQSHIPILHDMQQILDSSAMFLEGQHDVAVNVEQMQEKMSQIREALARLFERLKSSAALFEEILERMGSSDPNADKIKKMKLAFETSINDKLNVSAILEAAEKDLHNMSLNFSILEKSIVSQAAEASRRFTIAPDAEDVASSSLLNASYSPLFKFTSNSDIVEKLQNEVSELKNELEMARTRDMRSPLNGSSGRLSDVQINTNRMFEDLEVSEATLQKAKEENSTLKSQFAELEANLHQVNSKLGEVRCELNEALARVDGEQETRVKAENALEEARQLISSLKHEENELKKTITDMGMRLNEAKKSDEFLKSELSTALEEEKKSQNLADELSEELNGWRMRTKEAENKVEHASSEKSEMLERIVHLETEMEKLSTSEIAADYCSTKMTERKKEIELAKYREDFENAAIVGLERISKEISELTKKTLKAKIIPSNISSIQLVCDELCRRLSREREQQHEYAKVMRDVNEKIEKLQLEKDALEHELKMMSSNNENVPPVGTSVSGMPTKTSNQKCAQPHYTSPTRQLLHESTMAVDAIVQKLKKTHNMSGMGPELKETIGNVINESRVLRDFLHQKLILFKGIDMSNWKNETVDQLITDLGQLHQDNLMLEEQIKKYKKELKLTKSAIPTLGVEFQDRIKTEIGKIATDMGGAVKEIRKK
[1]
  stoichiometry N: 2

## B2
[2]
  stoichiometry N: 2

B3: MBP-Cnn_(490-608) 2A (S567A/S571A) (domain or fragment, Drosophila melanogaster, UniProt P54623-2 490-608, looked up)
chain: DQQNSAVIGQLRLELQQARTEVETADKWRLECVDVCSVLTNRLEELAGFLNSLLKHKDVLGVLAADRRNAMRKAVDRALDLAKSLNMTLNITATSLADQSLAQLCNLSEILYTEGDASH
notes: also called 2A-mutant PReM; source: E. coli BL21 (DE3), purified; not shown: MBP, N-terminal, kept
[2]
  stoichiometry N: 2

B4: Drosophila Cnn CM2 domain (domain or fragment, Drosophila melanogaster, UniProt P54623-2 1082-1148, looked up)
chain: HDCAKVDLENAELRRKLIRTKRAFEDTYEKLRMANKAKAQVEKDIKNQILKTHNVLRNVRSNMENEL
notes: the EM methods print 1077-1148; The methods say that the N-terminal tag was cleaved for SEC-MALS, crystallisation or further use; also called DmCM2; fly CM2; source: E. coli BL21 (DE3), purified
[3]
  binding result: binds
[4]
  binding result: binds
[5]
  binding result: binds

B5: Full-length Cnn-GFP (natural protein, Drosophila melanogaster, UniProt P54623-2 1-1148, looked up)
chain: MDQSKQVLRDYCGDGNGTCASSLKEITLIETVTSFLEENGAAEIDRRVLRKLAEALSKSIDDTSPGALQDVTMENSYASFDVPRPPGGGNSPLPSQGRSVRELEEQMSALRKENFNLKLRIYFLEEGQPGARADSSTESLSKQLIDAKIEIATLRKTVDVKMELLKDAARAISHHEELQRKADIDSQAIIDELQEQIHAYQMAESGGQPVENIAKTRKMLRLESEVQRLEEELVNIEARNVAARNELEFMLAERLESLTACEGKIQELAIKNSELVERLEKETASAESSNANRDLGAQLADKICELQEAQEKLKERERIHEQACRTIQKLMQKLSSQEKEIKKLNQENEQSANKENDCAKTVISPSSSGRSMSDNEASSQEMSTNLRVRYELKINEQEEKIKQLQTEVKKKTANLQNLVNKELWEKNREVERLTKLLANQQKTLPQISEESAGEADLQQSFTEAEYMRALERNKLLQRKVDVLFQRLADDQQNSAVIGQLRLELQQARTEVETADKWRLECVDVCSVLTNRLEELAGFLNSLLKHKDVLGVLAADRRNAMRKAVDRSLDLSKSLNMTLNITATSLADQSLAQLCNLSEILYTEGDASHKTFNSHEELHAATSMAPTVENLKAENKALKKELEKRRSSEGQRKERRSLPLPSQQFDNQSESEAWSEPDRKVSLARIGLDETSNSLAAPEQAISESESEGRTCATRQDRNRNSERIAQLEEQIAQKDERMLNVQCQMVELDNRYKQEQLRCLDITQQLEQLRAINEALTADLHAIGSHEEERMVELQRQLELKNQQIDQLKLAHSTLTADSQITEMELQALQQQMQEIEQLHADSVETLQSQLQKLKLDAVQQLEEHERLHREALERDWVALTTYQEQAQQLLELQRSLDYHQENEKELKQTLVENELATRALKKQLDESTLQASKAVMERTKAYNDKLQLEKRSEELRLQLEALKEEHQKLLQKRSNSSDVSQSGYTSEEVAVPMGPPSGQATTCKQAAAAVLGQRVNTSSPDLGIESDAGRISSVEVSNAQRAMLKTVEMKTEGSASPKAKSEESTSPDSKSNVATGAATVHDCAKVDLENAELRRKLIRTKRAFEDTYEKLRMANKAKAQVEKDIKNQILKTHNVLRNVRSNMENEL
notes: Centrosomin (Cnn), Drosophila melanogaster, full length, synthesised gene; also called Cnn-WT; not shown: MBP, N-terminal, cleaved; mGFP, C-terminal, kept; His10, C-terminal, cleaved
[6]
  stoichiometry N: 2
